Measurements taken from article PMC11873932.

Biological target: Protein Serine Kinase H1 (PSKH1), recombinant full-length, wild type (human) (UniProt P11801)
Sequence (P11801 whole entry): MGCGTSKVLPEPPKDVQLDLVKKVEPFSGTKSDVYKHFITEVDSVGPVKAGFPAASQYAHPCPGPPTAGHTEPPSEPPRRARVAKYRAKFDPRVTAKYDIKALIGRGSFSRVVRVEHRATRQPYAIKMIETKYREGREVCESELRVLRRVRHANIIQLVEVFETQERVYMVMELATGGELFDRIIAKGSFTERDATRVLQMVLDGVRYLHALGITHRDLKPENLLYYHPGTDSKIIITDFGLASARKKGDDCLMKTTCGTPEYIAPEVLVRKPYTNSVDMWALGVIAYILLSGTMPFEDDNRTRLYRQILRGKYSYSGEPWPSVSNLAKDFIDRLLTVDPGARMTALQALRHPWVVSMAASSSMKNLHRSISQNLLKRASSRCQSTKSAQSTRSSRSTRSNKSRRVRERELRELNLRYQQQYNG

half-maximal activation (EC50) of HA-tagged PSKH1 (10 ng) kinase activity, titration of CaM 0-1,000 nM, radiometric assay: 0.0587 µM | radiometric kinase assay (ADR1 peptide phosphorylation) of HA-tagged PSKH1 (10 ng) with Ca2+-CaM (1 uM): 10 fold
Substance: Calmodulin, recombinant (His6-Calmodulin) (from UniProt P0DP23 1-149) (natural protein)
